One block for each compound: values may come before it.
Experiments:
[1] = Plasma concentration of adalimumab or ustekinumab in implanted Nude mice (human IgG Fc ELISA); format: in vivo, mouse; conditions: for day plateau was reached: nPET-PBT/PET/nPU cell chamber device; for average plasma concentration plateau: nPET-PBT/PET/nPU cell chamber device with antibody-expressing ARPE19 cells, subcutaneous
Procedure: To assess the ability to deliver biologics into the blood flow and the applicability of the devices to other biologics, secretion of adalimumab or ustekinumab from the nPET-PBT/PET/nPU cell chamber device described in Example 10 was assessed in vivo. The nPET-PBT/PET/nPU cell chamber device was seeded with ARPE19 cells stably expressing adalimumab or ustekinumab (see also Example 8) and subcutaneously implanted in Nude mice. Mice were assessed by blood collection over the course of >100 days to measure the plasma concentration of each antibody over time. Human IgG concentration in plasma was tested by an ELISA assay which detected the human IgG Fc region. […] (Day 1-Day 60: N=5, Day 61-Day 81: N=4, Day 82-92: N=3, Day 93-Day 108: N=2). Similarly, the average ustekinumab plasma concentration reached a plateau of approximately 60-110 μg/mL around Day 20 and maintained a steady-state over 80 days (N=5).

[2] = molecular target: human TNFα (Homo sapiens, UniProt P01375); assay: Neutralization of human TNFα activity in L-929 cells (CCK-8 viability); format: cell-based; conditions: antibody secreted by ARPE-19 cells in culture medium, human TNFα 1 ng/mL
Procedure: Adalimumab is an anti-TNFα antibody. To assay for adalimumab activity in the cell culture medium of adalimumab/ARPE-19 cells, L-929 cells were seeded into a 96 well cell culture plate at the density of 5,000 cells/well in DMEM supplemented with 10% FBS. After 20-hour incubation, the cells were sensitized with Actinomycin D (2 μg/mL) for two hours. Then the cells were incubated with culture medium comprising antibodies secreted by the ARPE-19 cells in the presence of human TNFα (1 ng/mL). After another 20-hour incubation the cells were evaluated for cell viability by a CCK-8 assay to test for neutralization of human TNFα activity.

[3] = tested on: vedolizumab/Luc-ARPE19 cells; assay: Cell growth and vedolizumab secretion on tacrolimus-loaded nPET-PBT; format: cell-based, human; conditions: 200,000 cells/condition, three days, fluorescence imaging
Procedure: Cells were grown on tacrolimus-loaded nPET-PBT discs over three days, after which the surfaces of the nPET-PBT material were visually inspected by fluorescence imaging. […] Cells were further assessed three weeks post-seeding.

[4] = HPLC analysis of tacrolimus solvent-extracted from electrospun nPET-PBT; format: physicochemical; conditions: HPLC after solvent extraction
Procedure: To reduce inflammation due to implantation trauma, the cell scaffold device can be loaded with tacrolimus (FK506). To assess cell seeding and biomolecule secretion on tacrolimus-treated materials, electrospun nPET-PBT was loaded with tacrolimus by dissolving 0% tacrolimus, 2% tacrolimus, or 4% tacrolimus to the polymer solution prior to electrospinning.
Incorporation of tacrolimus into nPET-PBT was assessed by solvent extracting the tacrolimus from the electrospun materials. The solvent extracted solution was then analyzed by high performance liquid chromatography (HPLC).

Chain of human TNFα (P01375 77-233 limits assumed): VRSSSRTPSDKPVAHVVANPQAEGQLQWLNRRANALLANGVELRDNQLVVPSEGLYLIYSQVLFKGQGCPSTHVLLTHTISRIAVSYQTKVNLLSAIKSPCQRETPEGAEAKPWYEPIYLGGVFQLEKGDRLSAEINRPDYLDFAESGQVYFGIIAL

Compound: ustekinumab: anti-IL-12/IL-23 antibody
day plateau was reached [1]: ~20 days | average plasma concentration plateau [1]: 60 to 110 µg/mL

Compound: adalimumab
TNFα neutralizing activity [2]: retained TNFα neutralizing activity | day plateau was reached [1]: ~25 days | average plasma concentration plateau [1]: 50 to 100 µg/mL

drug degradation following loading onto electrospun nPET-PBT [4]: no drug degradation
Compound: C=CC[C@@H]1/C=C(\C)C[C@H](C)C[C@H](OC)[C@H]2O[C@@](O)(C(=O)C(=O)N3CCCC[C@H]3C(=O)O[C@H](/C(C)=C/[C@@H]3CC[C@@H](O)[C@H](OC)C3)[C@H](C)[C@@H](O)CC1=O)[C@H](C)C[C@@H]2OC [tacrolimus]
effect on cell proliferation or growth [3]: no detectable effect on cell proliferation or growth
